B1: TCR 1 (TCR, V domains shown)
Valpha: GDSVTQMEGPVTLSEEAFLTINCTYTATGYPSLFWYVQYPGEGLQLLLKATKADDKGSNKGFEATYRKETTSFHLEKGSVQVSDSAVYFCALSDRVGGARLMFGDGTQLVVKP
Vbeta: EADIYQTPRYLVIGTGKKITLECSQTMGHDKMYWYQQDPGMELHLIHYSYGVNSTEKGDLSSESTVSRIRTEHFPLTLESARPSHTSQYLCASSEGLYNEQFFGPGTRLTVL
B2: TCR 2: T cell receptor targeting RAS G12D peptide; α chain SEQ ID NO: 22, β chain SEQ ID NO: 23 (protein, listed as Homo sapiens)
alpha: MTRVSLLWAVVVSTCLESGMAQTVTQSQPEMSVQEAETVTLSCTYDTSENNYYLFWYKQPPSRQMILVIRQEAYKQQNATENRFSVNFQKAAKSFSLKISDSQLGDTAMYFCAFMYPSQGGSEKLVFGKGMKLTVNPNIQNPDPAVYQLRDSKSSDKSVCLFTDFDSQTNVSQSKDSDVYITDKTVLDMRSMDFKSNSAVAWSNKSDFACANAFNNSIIPEDTFFPSPESSCDVKLVEKSFETDTNLNFQNLSVIGFRILLLKVAGFNLLMTLRLWSS
beta: MGPGLLCWVLLCLLGAGSVETGVTQSPTHLIKTRGQQVTLRCSSQSGHNTVSWYQQALGQGPQFIFQYYREEENGRGNFPPRFSGLQFPNYSSELNVNALELDDSALYLCASSSPGFRSYGYTFGSGTRLTVVEDLNKVFPPEVAVFEPSEAEISHTQKATLVCLATGFFPDHVELSWWVNGKEVHSGVSTDPQPLKEQPALNDSRYCLSSRLRVSATFWQNPRNHFRCQVQFYGLSENDEWTQDRAKPVTQIVSAEAWGRADCGFTSVSYQQGVLSATILYEILLGKATLYAVLVSALVLMAMVKRKDF
modifications: Description of sequence: Full alpha-chain; Description of sequence: Full beta-chain
B3: TCR 5: T cell receptor targeting RAS G12D peptide; α chain SEQ ID NO: 50, β chain SEQ ID NO: 51 (protein, listed as Homo sapiens)
alpha: MKTFAGFSFLFLWLQLDCMSRGEDVEQSLFLSVREGDSSVINCTYTDSSSTYLYWYKQEPGAGLQLLTYIFSNMDMKQDQRLTVLLNKKDKHLSLRIADTQTGDSAIYFCAERDAGNNRKLIWGLGTSLAVNPNIQNPDPAVYQLRDSKSSDKSVCLFTDFDSQTNVSQSKDSDVYITDKTVLDMRSMDFKSNSAVAWSNKSDFACANAFNNSIIPEDTFFPSPESSCDVKLVEKSFETDTNLNFQNLSVIGFRILLLKVAGFNLLMTLRLWSS
beta: MGTRLLCWVVLGFLGTDHTGAGVSQSPRYKVAKRGQDVALRCDPISGHVSLFWYQQALGQGPEFLTYFQNEAQLDKSGLPSDRFFAERPEGSVSTLKIQRTQQEDSAVYLCASSLEGGDTQYFGPGTRLTVLEDLKNVFPPEVAVFEPSEAEISHTQKATLVCLATGFYPDHVELSWWVNGKEVHSGVSTDPQPLKEQPALNDSRYCLSSRLRVSATFWQNPRNHFRCQVQFYGLSENDEWTQDRAKPVTQIVSAEAWGRADCGFTSESYQQGVLSATILYEILLGKATLYAVLVSALVLMAMVKRKDSRG
modifications: Description of sequence: Full alpha-chain; Description of sequence: Full beta-chain
B4: TCR 1: T cell receptor targeting RAS G12D peptide; α chain SEQ ID NO: 12, β chain SEQ ID NO: 13 (protein, listed as Homo sapiens)
alpha: MNYSPGLVSLILLLLGRTRGDSVTQMEGPVTLSEEAFLTINCTYTATGYPSLFWYVQYPGEGLQLLLKATKADDKGSNKGFEATYRKETTSFHLEKGSVQVSDSAVYFCALSDRVGGARLMFGDGTQLVVKPNIQNPDPAVYQLRDSKSSDKSVCLFTDFDSQTNVSQSKDSDVYITDKTVLDMRSMDFKSNSAVAWSNKSDFACANAFNNSIIPEDTFFPSPESSCDVKLVEKSFETDTNLNFQNLSVIGFRILLLKVAGFNLLMTLRLWSS
beta: MTIRLLCYMGFYFLGAGLMEADIYQTPRYLVIGTGKKITLECSQTMGHDKMYWYQQDPGMELHLIHYSYGVNSTEKGDLSSESTVSRIRTEHFPLTLESARPSHTSQYLCASSEGLYNEQFFGPGTRLTVLEDLKNVFPPEVAVFEPSEAEISHTQKATLVCLATGFYPDHVELSWWVNGKEVHSGVSTDPQPLKEQPALNDSRYCLSSRLRVSATFWQNPRNHFRCQVQFYGLSENDEWTQDRAKPVTQIVSAEAWGRADCGFTSESYQQGVLSATILYEILLGKATLYAVLVSALVLMAMVKRKDSRG
modifications: Description of sequence: Full alpha-chain; Description of sequence: Full beta-chain
B5: TCR 4: T cell receptor targeting RAS G12D peptide; α chain SEQ ID NO: 41, β chain SEQ ID NO: 42 (protein, listed as Homo sapiens)
alpha: MMKSLRVLLVILWLQLSWVWSQQKEVEQDPGPLSVPEGAIVSLNCTYSNSAFQYFMWYRQYSRKGPELLMYTYSSGNKEDGRFTAQVDKSSKYISLFIRDSQPSDSATYLCAMGALNSGAGSYQLTFGKGTKLSVIPNIQNPDPAVYQLRDSKSSDKSVCLFTDFDSQTNVSQSKDSDVYITDKTVLDMRSMDFKSNSAVAWSNKSDFACANAFNNSIIPEDTFFPSPESSCDVKLVEKSFETDTNLNFQNLSVIGFRILLLKVAGFNLLMTLRLWSS
beta: MGSRLLCWVLLCLLGAGPVKAGVTQTPRYLIKTRGQQVTLSCSPISGHRSVSWYQQTPGQGLQFLFEYFSETQRNKGNFPGRFSGRQFSNSRSEMNVSTLELGDSALYLCASSLSSGTGTEAFFGQGTRLTVVEDLNKVFPPEVAVFEPSEAEISHTQKATLVCLATGFFPDHVELSWWVNGKEVHSGVSTDPQPLKEQPALNDSRYCLSSRLRVSATFWQNPRNHFRCQVQFYGLSENDEWTQDRAKPVTQIVSAEAWGRADCGFTSVSYQQGVLSATILYEILLGKATLYAVLVSALVLMAMVKRKDF
modifications: Description of sequence: Full alpha-chain; Description of sequence: Full beta-chain
B6: TCR 3: T cell receptor targeting RAS G12D peptide; α chain SEQ ID NO: 31, β chain SEQ ID NO: 32 (protein, listed as Homo sapiens)
alpha: MACPGFLWALVISTCLEFSMAQTVTQSQPEMSVQEAETVTLSCTYDTSESDYYLFWYKQPPSRQMILVIRQEAYKQQNATENRFSVNFQKAAKSFSLKISDSQLGDAAMYFCAYRSDGGATNKLIFGTGTLLAVQPNIQNPDPAVYQLRDSKSSDKSVCLFTDFDSQTNVSQSKDSDVYITDKTVLDMRSMDFKSNSAVAWSNKSDFACANAFNNSIIPEDTFFPSPESSCDVKLVEKSFETDTNLNFQNLSVIGFRILLLKVAGFNLLMTLRLWSS
beta: MGPQLLGYVVLCLLGAGPLEAQVTQNPRYLITVTGKKLTVTCSQNMNHEYMSWYRQDPGLGLRQIYYSMNVEVTDKGDVPEGYKVSRKEKRNFPLILESPSPNQTSLYFCASSLGAGGYNSPLHFGNGTRLTVTEDLNKVFPPEVAVFEPSEAEISHTQKATLVCLATGFFPDHVELSWWVNGKEVHSGVSTDPQPLKEQPALNDSRYCLSSRLRVSATFWQNPRNHFRCQVQFYGLSENDEWTQDRAKPVTQIVSAEAWGRADCGFTSVSYQQGVLSATILYEILLGKATLYAVLVSALVLMAMVKRKDF
modifications: Description of sequence: Full alpha-chain; Description of sequence: Full beta-chain

Columns and labels:
[1] = biological target: T1, KRAS wild type (10-mer) peptide on HLA-A*11:01 (human); test: cytokine release
T1 peptide: VVVGAGGVGK

[2] = biological target: T2, GEM (also listed as SEQ ID NOs 82, 106, 130, 141) peptide on HLA-A*11:01 (human); test: cytokine release
T2 peptide: AVFGAGGVGK

[3] = biological target: T3, KRAS G12D (10-mer; the same sequence in NRAS G12D and HRAS G12D) peptide on HLA-A*11:01 (human); test: multimer staining
T3 peptide: VVVGADGVGK

[4] = biological target: T4, peptide-pulsed HLA-A*11:01+ COS-7 target cells (Homo sapiens, UniProt P04439, A114D/D185E/E176A/F33Y/L180Q/S129P/T187R); test: Cross-reactivity: IFN-γ ELISA after coculture of RAS TCR-T cells with peptide-pulsed HLA-A*11:01+ COS-7 cells; type: cell-based; conditions: peptides of Tables 7-11 at 1 μM, E:T 1:1, 24 h; background threshold 50 pg/mL
T4 construct: Target COS-7 cells were electroporated with mRNA encoding full-length human HLA*11:01; expressed in transfected cells; host or cells: COS-7 cells electroporated with mRNA
Protocol: Next, studies were conducted to determine the cross-reactivity potential of RAS-specific TCRs. Individual TCR peptide motifs were scanned against the human proteome to identify potential cross-reactive sequences. Target COS-7 cells were electroporated with mRNA encoding full-length human HLA*11:01 and incubated at 37 degrees overnight to allow HLA-A*11:01 protein expression. […]. The cells were then pulsed with an individual peptide corresponding to its RAS-specific TCR (see Tables 7-11) at a concentration of 1 μM; finally, wild-type (WT) and mutated RAS peptides were included as functional controls. RAS TCR-T cells, expressing individual RAS TCRs 1-5, were added at an E:T ratio of 1:1 and incubated at 37 degrees for 24 h. Supernatants were harvested from coculture wells to perform an ELISA assay to determine levels of IFN-γ production.

| Molecule | reactivity (IFN-γ) to alternative human peptide sequences possessing the recognition motif [4] | other results |
| --- | --- | --- |
| B1 |  | binding result [1]: no recognition; binding result [2]: no recognition; binding result [3]: recognises |
| B2 | did not exhibit reactivity |  |
| B3 | did not exhibit reactivity |  |
| B4 | did not exhibit reactivity |  |
| B5 | did not exhibit reactivity |  |
| B6 | low level reactivity to a single alternative peptide |  |
